Measured values published in patent US9468682B2, “Compositions and methods for enhancing penetration of biologically active substances into tissues or organs” (Joint-stock company “High Tech”, priority 2013, dated 2016).

Experiments:
[1] = Franz diffusion cell skin permeability for insulin, antibiotics and mesotherapy components; conditions: FIG. 1; donor insulin 5 IU/ml or 0.25 mg/ml; HPLC
Text: The receptor solution aliquots were collected at different intervals and analyzed using HPLC.

[2] = Delivery through skin and mucous membranes in animals; assay type: in vivo; conditions: with ammonium sulfate; rats and guinea pigs
[3] = In vitro skin permeability, Franz diffusion cell, 3H-labeled substances; conditions: Table 4
Protocol: The vertical Franz diffusion cell was used (PermeGear, Bethlehem, USA) with the effective diffusion surface of 2 cm^2.
The experiments were carried out using the skin of male species of Sprague-Dawley rats, weight 110-120 g, taken from the front abdominal wall. Hair and adipose tissue were removed from the skin; the skin was soaked in normal saline and placed into the diffusion cell. The following solutions labeled with ^3H in accordance with the standard method (Klimova et. al. 1993) were added into the donor chamber: complex of collagenolytic digestive protease from hydrobionts (Fermencol™, Table 3), Fe-superoxide dismutase from E. coli (Table 4) and fragments of rRNA 25-55 bases in length (Table 5).

insulin
Effect of further increase of ammonium sulfate concentration on insulin diffusion from donor to acceptor solution [1]: does not influence the effectiveness of insulin diffusion
Delivery through skin and mucous membranes [2]: Positive results

B1: Fe-superoxide dismutase from E. coli: Fe-superoxide dismutase from E. coli, labeled with 3H (protein, UniProt P0AGD3 2-193, looked up)
Superoxide dismutase [Fe]: SFELPALPYAKDALAPHISAETIEYHYGKHHQTYVTNLNNLIKGTAFEGKSLEEIIRSSEGGVFNNAAQVWNHTFYWNCLAPNAGGEPTGKVAEAIAASFGSFADFKAQFTDAAIKNFGSGWTWLVKNSDGKLAIVSTSNAGTPLTTDATPLLTVDVWEHAYYIDYRNARPGYLEHFWALVNWEFVAKNLAA
modifications: tritium (3H) label
^3H-labeled marker in receptor medium, % from initial ([3]; ammonium sulfate 0 M in donor medium, incubation 10 hrs): 0.01%
^3H-labeled marker in receptor medium, % from initial ([3]; ammonium sulfate 0 M in donor medium, incubation 20 hrs): 0.05%
^3H-labeled marker in receptor medium, % from initial ([3]; ammonium sulfate 0 M in donor medium, incubation 30 hrs): 0.07%
^3H-labeled marker in receptor medium, % from initial ([3]; ammonium sulfate 0 M in donor medium, incubation 40 hrs): 0.11%
^3H-labeled marker in receptor medium, % from initial ([3]; ammonium sulfate 0 M in donor medium, incubation 60 hrs): 0.34%
^3H-labeled marker in receptor medium, % from initial ([3]; ammonium sulfate 0.1 M in donor medium, incubation 10 hrs): 5.31%
^3H-labeled marker in receptor medium, % from initial ([3]; ammonium sulfate 0.1 M in donor medium, incubation 20 hrs): 10.00%
^3H-labeled marker in receptor medium, % from initial ([3]; ammonium sulfate 0.1 M in donor medium, incubation 30 hrs): 12.06%
^3H-labeled marker in receptor medium, % from initial ([3]; ammonium sulfate 0.1 M in donor medium, incubation 40 hrs): 17.99%
^3H-labeled marker in receptor medium, % from initial ([3]; ammonium sulfate 0.1 M in donor medium, incubation 60 hrs): 20.11%
^3H-labeled marker in receptor medium, % from initial ([3]; ammonium sulfate 0.2 M in donor medium, incubation 10 hrs): 5.67%
^3H-labeled marker in receptor medium, % from initial ([3]; ammonium sulfate 0.2 M in donor medium, incubation 20 hrs): 12.56%
^3H-labeled marker in receptor medium, % from initial ([3]; ammonium sulfate 0.2 M in donor medium, incubation 30 hrs): 17.90%
^3H-labeled marker in receptor medium, % from initial ([3]; ammonium sulfate 0.2 M in donor medium, incubation 40 hrs): 27.60%
^3H-labeled marker in receptor medium, % from initial ([3]; ammonium sulfate 0.2 M in donor medium, incubation 60 hrs): 35.11%
^3H-labeled marker in receptor medium, % from initial ([3]; ammonium sulfate 0.5 M in donor medium, incubation 10 hrs): 7.80%
^3H-labeled marker in receptor medium, % from initial ([3]; ammonium sulfate 0.5 M in donor medium, incubation 20 hrs): 10.81%
^3H-labeled marker in receptor medium, % from initial ([3]; ammonium sulfate 0.5 M in donor medium, incubation 30 hrs): 16.94%
^3H-labeled marker in receptor medium, % from initial ([3]; ammonium sulfate 0.5 M in donor medium, incubation 40 hrs): 31.00%
^3H-labeled marker in receptor medium, % from initial ([3]; ammonium sulfate 0.5 M in donor medium, incubation 60 hrs): 35.30%
^3H-labeled marker in receptor medium, % from initial ([3]; ammonium sulfate 1.0 M in donor medium, incubation 10 hrs): 7.67%
^3H-labeled marker in receptor medium, % from initial ([3]; ammonium sulfate 1.0 M in donor medium, incubation 20 hrs): 10.33%
^3H-labeled marker in receptor medium, % from initial ([3]; ammonium sulfate 1.0 M in donor medium, incubation 30 hrs): 16.74%
^3H-labeled marker in receptor medium, % from initial ([3]; ammonium sulfate 1.0 M in donor medium, incubation 40 hrs): 31.00%
^3H-labeled marker in receptor medium, % from initial ([3]; ammonium sulfate 1.0 M in donor medium, incubation 60 hrs): 35.11%
